Reference: the DeepSol protein solubility set

experiment: soluble on expression in E. coli; label from the status in PepcDB or PDB records

Row | Sequence | soluble on expression in E. coli
1 | MGSDKIHHHHHHMSNCFNPANILLPKDGIDMEKWSVIACDQYTSQADYWKTVEEFVGDAPSTLNVVFPEIYLGNKKNDKNCACENGSCADDHTTMYASMSDSERIACINSTMEKYLSDGIIQQVVTDGYVLVERTTESGVRLGIVGLVDLDDYDFDPKNPTLIRATEGTVISRIPPRVKIREHAAIELPHVMLLVDDPVDKADDASDEGKLTDIYNIGNIEHGIIEYVYSLKDSFRKLYDTDLMQGGGHIRGYAIEGEAAKQVTAAFAKKQEQSGGFLFAVGDGNHSLATAKTCWENIRKSQKFTDEQLKTHPARYALVEICNLHSKALEFKPIHRLLTKVNVEDMLAFFNEQLKEQGLECAEGNEIIFEYVESSDSIDENASGYEARVCTYAINIINRGDRLPVEILQGILDKYIKSHEDTEIDYIHGDDALHRLVKETNGCGIFLQSIDKSTLFPAINAGGVLPRKTFSIGEANEKRYYMECHNIQVK | not soluble
2 | MWQQKSFQQNEKGVLYLVPTPIGNLEDMTFRAIRILKEADLIAAEDTRQTKKLCNYFEIETPVMSYHEHNKEVSGKKILEKLDEGKTVALVSDAGMPCISDPGYDIVVEAVAEQYHVIPLPGANAALTALIASGLQTKQFYFYGFLQRNKKERKMELEKLRYVQTTMMFYEAPHRLDDTLISMQEVLGNREIVLCRELTKKFEEFIRGTVEEAIEWTKQNEVRGEFCILVAGSTEEPAPEEQWWESISVYNHIEHYINEKGMNSKEAIKTVAKDRDLSKRDVYQIYHVDKK | soluble
3 | MSDIKHEKKLANMDTPGETTKSFENKLDEEIPDIEESDFINSPPFSDEIFSPEDSKQVEISELSKQAYSLLKGNSITEAINVFKKILELDPTNNYALVGLGDAERKNNKFNEAIKFYKQCLEHHPSNNYALFGLADCYKSMNQFPRAIAIWEEYLKFDDKNITVLTRVADAYRKTKEFEKAEKLYQKVLEKSPKNAYALIGLGHLNYDFKKYREALVYWEKVMESSGELVDIRILTSIGNCYRKMKLFDRGVYYFERALERSPDNFYGLFGLADCYRGLNQQYNSIVYWKKILELDPNNKVILTRIGDAYRSMNDFEKAKESYQKALDIDFDSYAMLGLAILCKLQQKYDQAITTLTHLKDTGDTNYNYRVYLELAQCYIEKKEKQKAIETLIDFQKLGIKNQTVSDLLFELTKNDH | not soluble
4 | MTKEVLIHQIIDVLARAGFALSDRCNIRPRSFDVAARKDDTLLLCKVLFNIDGLNEETAREMKYLAEYLGGSAIVVGAKTRDQMLEDSVVYMRYDILALSVQTLYDYFVENIRPLVSAAPGGLYVSIEGDLLKKARTTQSMSLGTLASMVGVSRRTISKYEEEGMDASIDVVLHLEDIFGVELAKPIDILKSCGSRKPRKKAEPEKEEPKGKPGTLLPEDLILNTISMLGYDVLPTAQAPFKAISRDKSSVILTGVSEFNTTVIKRAHLMSSISCITETQSVFIINGRSKLKSVENTVLIEKKELDTISDSQELLDFIEERKDTHEA | not soluble
5 | MVSVNENALPLVERMIERAELLNVEVQELENGTTVIDCGVEAAGGFEAGLLFSEVCMGGLATVELTEFEHDGLCLPAVQVTTDHPAVSTLAAQKAGWQVQVGDYFAMGSGPARALALKPKETYEEIDYEDDADVAILCLESSELPDEDVAEHVADECGVDPENLYLLVAPTASIVGSVQVSARVVETGLYKLLEVLEYDVTRVKYATGTAPIAPVADDDGEAMGRTNDCILYGGTVYLYVEGDDELPEVVEELPSEASEDYGKPFMKIFEEADYDFYKIDPGVFAPARVVVNDLSTGKTYTAGEINVDVLKESFSL | soluble
6 | MIEQIGADSKSAENKQERKLYIETYGCQMNVADSEVVASVMQMDGYNLTDNVDEADTILVNTCSVRDNAEQKVLNRLAYYHSLRKKRRASSRLVIGVLGCMAERVKEELIREHHVDVVAGPDSYLDLPNLVGAAEQGEKAINVELSTQETYKDVMPLKMGGVHINGFVSIMRGCNNFCSYCIVPYTRGRERSREIESILNEVRDLKAKNFREVTLLGQNVNSYRYEQNGRIIRFPDLLAAVAEAVPDMRIRFTSPHPKDMDDEAIAVMARYRNICNHIHLPAQSGSDKMLRVMKRGYTRRWYLDRVAAIRRAIPDCAISSDLFCGFHSETEEDFEATLSLMEEVRYDSAFMFKYSERPGTYAARHLADDVPEEVKLSRLDRMIALQNRLSEESNKRDIGKTFEVLIEGFSKRSREQLFGRTQQNKVVIFDKNGHRVGQYIYVRIKDASSATLFGEVVETPTSELEHHHHHH | soluble
